Reference: the supplement of paper PMC7125110
± gives the standard error. For some of these results: This sample holds only a part of the variants without activity.

B1: glmS ribozyme (parent)
chain: AUAAAAGCGCCAGAACUACAGAAAUGUAGUUGACGAGGAGGAGGUUUAUCGAAUUUUCGGCGGAUGCCUCCAAA

Tests used:
Settings in all cases: with glucosamine-6-phosphate
glucosamine-6-phosphate [1] = variants of: B1; assay: kcat; higher = faster cleavage; RNA array
Summary of the method: (§1)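 Barcoded ribozyme variants on sequenced MiSeq chips were transcribed in situ by E. coli RNA polymerase and followed at 37 °C through a hybridised Cy3 probe. Glucosamine-6-phosphate at 40 μM to 10 mM in HEPES/KCl/Mg(OAc)2 buffer was flowed in, and tiles were imaged over ~14 h. Signals were normalised to baseline and to non-cleaving reference variants, and per-tile medians were fit to one- or two-exponential decays to give kobs. Weighted Michaelis–Menten fits across concentrations gave kcat and KM.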

glucosamine-6-phosphate [2] = variants of: B1; assay: KM; higher = weaker cofactor use; RNA array
Summary of the method: as §1

glucosamine-6-phosphate [3] = variants of: B1; assay: self-cleavage kobs at 640 uM GlcN6P; higher = faster cleavage; RNA array
Summary of the method: as §1

glucosamine-6-phosphate [4] = variants of: B1; assay: self-cleavage kobs at 2500 uM GlcN6P; higher = faster cleavage; RNA array
Summary of the method: as §1

glucosamine-6-phosphate [5] = variants of: B1; assay: self-cleavage kobs at 10000 uM GlcN6P; higher = faster cleavage; RNA array
Summary of the method: as §1

glucosamine-6-phosphate [6] = variants of: B1; assay: self-cleavage kobs at 40 uM GlcN6P; higher = faster cleavage; RNA array
Summary of the method: as §1

glucosamine-6-phosphate [7] = variants of: B1; assay: self-cleavage kobs at 160 uM GlcN6P; higher = faster cleavage; RNA array
Summary of the method: as §1

| Variant | kcat (glucosamine-6-phosphate [1]) [s⁻¹] | KM (glucosamine-6-phosphate [2]) [µM] | self-cleavage kobs at 640 uM GlcN6P (glucosamine-6-phosphate [3]) [s⁻¹] | self-cleavage kobs at 2500 uM GlcN6P (glucosamine-6-phosphate [4]) [s⁻¹] | self-cleavage kobs at 10000 uM GlcN6P (glucosamine-6-phosphate [5]) [s⁻¹] | self-cleavage kobs at 40 uM GlcN6P (glucosamine-6-phosphate [6]) [s⁻¹] | self-cleavage kobs at 160 uM GlcN6P (glucosamine-6-phosphate [7]) [s⁻¹] |
| --- | --- | --- | --- | --- | --- | --- | --- |
| A42U U47A | 0.00012 ± 2.9e-06 | 1210 ± 91 | 4.11e-05 ± 1.2e-05 | 8.23e-05 ± 1.3e-05 | 0.000106 ± 1.7e-05 | – | – |
| G35U C67G | 1.19e-05 ± 2.3e-06 | – | – | < 1e-05 | – | – | – |
| A12C A64C | 0.000233 ± 1.8e-05 | 4850 ± 770 | – | 8.34e-05 ± 1.5e-05 | 0.000156 ± 2e-05 | – | – |
| U46C U54G | 0.00333 ± 0.00031 | 1370 ± 200 | 0.000997 ± 0.00031 | 0.00284 ± 0.00085 | 0.00287 ± 0.0004 | 9.45e-05 ± 1.5e-05 | – |
| G38A U65A | < 1e-05 | – | – | – | – | – | – |
| U54A C70A | 0.000115 ± 1.2e-05 | 42.6 ± 17 | 0.000107 ± 1.4e-05 | 0.000122 ± 1.5e-05 | – | 5.92e-05 ± 7.9e-06 | 7.42e-05 ± 1.3e-05 |
| C58U U65C | < 1e-05 | – | – | < 1e-05 | – | – | – |
| A33C C50A | < 1e-05 | – | – | – | – | – | – |
| U55A C70G | 0.000118 ± 1.5e-05 | – | 0.000148 ± 1.6e-05 | 0.000117 ± 1.2e-05 | 0.000101 ± 9.9e-06 | 3.74e-05 ± 7.5e-06 | 0.000102 ± 1.2e-05 |
| A14G G40C | 0.0146 ± 0.0059 | – | 0.00301 ± 0.00036 | 0.00549 ± 0.00094 | 0.0168 ± 0.0032 | 0.000285 ± 5.8e-05 | 0.000739 ± 0.0001 |
| U30G U56C | 0.00111 ± 0.00035 | – | 0.000359 ± 5.7e-05 | 0.000454 ± 8.9e-05 | 0.00109 ± 0.00017 | – | 7.46e-05 ± 1.8e-05 |
| U69A C71G | 3.77e-05 ± 9.7e-06 | – | 5.27e-05 ± 1.5e-05 | 4.01e-05 ± 9.2e-06 | – | – | – |
| A42G A48C | 0.00074 ± 0.00011 | 4500 ± 1200 | 9.68e-05 ± 2.1e-05 | 0.000276 ± 8.7e-05 | 0.000506 ± 7.8e-05 | – | – |
| A14U G38A | < 1e-05 | – | – | – | < 1e-05 | – | – |
| C50U A53C U54G | 1.06e-05 ± 9.8e-07 | – | – | – | < 1e-05 | – | – |
| U30C G60U | < 1e-05 | – | < 1e-05 | – | < 1e-05 | < 1e-05 | – |
| A14G G29C U56A | 0.00138 ± 0.00036 | 1960 ± 970 | 0.000364 ± 8.4e-05 | 0.000647 ± 0.00014 | 0.00136 ± 0.00029 | 3.76e-05 ± 1.8e-05 | – |
| U47C U56G | 0.00245 ± 0.00054 | 1580 ± 540 | 0.000708 ± 8.7e-05 | 0.00108 ± 0.00025 | 0.00243 ± 0.0003 | 7.97e-05 ± 1.3e-05 | 0.000196 ± 4e-05 |
